Columns and labels:
human colon carcinoma = test: In vivo biodistribution of radiogold cluster 17-1A conjugates in nude mice bearing human tumors; conditions: 24 hr after injection
Protocol: Nude mice bearing human colon carcinoma or melanoma tumors were injected with radioactive gold clusters conjugated to anti-tumor antibodies. Two antibodies were gold labeled, one (17-1A) against the human colon carcinoma and another non-relevant antibody, H2 4B5 anti-influenza. The non-relevant tumor (melanoma) and non-relevant gold conjugated antibody (H2 4B5) served as controls. A total of 53 mice were used. In order to assess the efficacy of using gold labeled Fab' versus whole IgG, both types of antibody were labeled and tested. In addition, two crosslinking arms between the gold cluster and antibody were used, one, as described in the preparation example, was N-methoxycarbonyl maleimide (NMCM), whereas the other was n-maleimidobenzoyl-N-hydroxysuccinimide ester (MBS), This was to test if a different covalent crosslinker between the gold cluster and antibody or antibody fragment yielded conjugates with different stabilities or body distributions in vivo.
In vivo biodistribution of radiogold cluster 17-1A conjugates. Data,
after injection is expressed in % of injected dose per gram of tissue.
Tumor to normal tissue ratios are given in parentheses. Three or four
sample were averaged; normalized to 25 g animals.

[1] = tested on: colorectal carcinoma cells; test: In vitro test of Fab'-Au11 with colorectal carcinoma cells, radiolabeled second antibody; format: cell-based, human
Protocol: (§1) The antibody used is "17-1A", commercially available from Centocor, Inc. These antibody-cluster conjugates were also assayed by electron microscopy, high pressure liquid chromatography, and spectroscopy and appeared to follow the normal course of results indicated in Examples 4 and 5. The number of gold clusters bound to each Fab' in this example was 0.7-1.0.
(§2) The in vitro test involved incubating the Fab'-Au11 with either colorectal carcinoma cells or a control melanoma for one hour, centrifugation to isolate the cell-bound antibody, and assay of the bound antibody with a second antibody [to F(ab')2 ] which was itself radiolabeled with iodine. A titer curve was produced.

control melanoma = test: In vitro test of Fab'-Au11 with control melanoma, radiolabeled second antibody; format: cell-based; conditions: preliminary in vitro testing, 17-1A
Protocol: as §1, §2

[2] = tested on: human colon carcinoma cells (LS180); test: In vitro cell binding of 17-1A-Au11 conjugates, human colon carcinoma (radioactivity of gold)
Protocol: (§3) The 17-1A Fab' fragment-(radioactive gold)-undecagold cluster conjugate was incubated in vitro with tumor cells (LS180- a cell culture of human colon carcinoma) and non tumor cells (WM164 - a cell culture of melanoma as control) and the radioactivity of the gold was used to assay binding.
(§4) bound to cells after incubation and washing.
(§5) entry is an average (+ s.d.) of 2 samples.

melanoma cells (WM164) = test: In vitro cell binding of 17-1A-Au11 conjugates, control melanoma (radioactivity of gold); conditions: percent of applied radioactive gold bound after incubation and washing; average ± s.d. of 2 samples
Protocol: as §3, §4, §5

B1: Fab'-Au11: 17-1A monoclonal antibody Fab' fragment covalently coupled to the undecagold cluster (radioactive gold in Tables 1 and 2) (conjugate, chains of the INN, looked up)
VH: QVQLQQSGAELVRPGTSVKVSCKASGYAFTNYLIEWVKQRPGQGLEWIGVINPGSGGTNYNEKFKGKATLTADKSSSTAYMQLSSLTSDDSAVYFCARDGPWFAYWGQGTLVTVSA
VL: NIVMTQSPKSMSMSVGERVTLTCKASENVVTYVSWYQQKPEQSPKLLIYGASNRYTGVPDRFTGSGSATDFTLTISSVQAEDLADYHCGQGYSYPYTFGGGTKLEIK
modifications: Fab' undecagold cluster label
Tumor to normal tissue ratio, blood (human colon carcinoma): 1.9 | Tumor to normal tissue ratio, bone (human colon carcinoma): 6.6 | Tumor to normal tissue ratio, gut (human colon carcinoma): 5. | Tumor to normal tissue ratio, heart (human colon carcinoma): 3.7 | Tumor to normal tissue ratio, kidneys (human colon carcinoma): 0.06 | Tumor to normal tissue ratio, liver (human colon carcinoma): 1.0 | Tumor to normal tissue ratio, lung (human colon carcinoma): 2.5 | Tumor to normal tissue ratio, muscle (human colon carcinoma): 13.2 | Tumor to normal tissue ratio, spleen (human colon carcinoma): 2.3 | Tumor to normal tissue ratio, stomach (human colon carcinoma): 11.2 | blood, % of injected dose per gram of tissue (human colon carcinoma; normalized to 25 g animals): 3.4 ± 0.3 % of injected dose per gram of tissue | bone, % of injected dose per gram of tissue (human colon carcinoma; normalized to 25 g animals): 0.97 ± 0.02 % of injected dose per gram of tissue | gut, % of injected dose per gram of tissue (human colon carcinoma; normalized to 25 g animals): 1.3 ± 0.1 % of injected dose per gram of tissue | heart, % of injected dose per gram of tissue (human colon carcinoma; normalized to 25 g animals): 1.7 ± 0.1 % of injected dose per gram of tissue | kidneys, % of injected dose per gram of tissue (human colon carcinoma; normalized to 25 g animals): 103.0 ± 32 % of injected dose per gram of tissue | liver, % of injected dose per gram of tissue (human colon carcinoma; normalized to 25 g animals): 5.6 ± 0.5 % of injected dose per gram of tissue | lung, % of injected dose per gram of tissue (human colon carcinoma; normalized to 25 g animals): 2.5 ± 0.04 % of injected dose per gram of tissue | muscle, % of injected dose per gram of tissue (human colon carcinoma; normalized to 25 g animals): 0.48 ± 0.06 % of injected dose per gram of tissue | spleen, % of injected dose per gram of tissue (human colon carcinoma; normalized to 25 g animals): 2.8 ± 0.4 % of injected dose per gram of tissue | stomach, % of injected dose per gram of tissue (human colon carcinoma; normalized to 25 g animals): 0.57 ± 0.14 % of injected dose per gram of tissue | tumor, % of injected dose per gram of tissue (human colon carcinoma; normalized to 25 g animals): 6.4 ± 1.1 % of injected dose per gram of tissue | antibody activity and specificity ([1]; one hour incubation, titer curve): antibody activity and specificity were preserved | specificity for the tumor ([1]; preliminary in vitro testing, 17-1A): retains its specificity for the tumor | binding to a control melanoma (control melanoma): does not bind to a control melanoma | localization of radioactive gold on tumor cells ([2]; LS180 cells, in words): localized completely on the tumor cells | % bound to tumor cells (human colon carcinoma) ([2]; percent of applied radioactive gold bound after incubation and washing, average ± s.d. of 2 samples): 7.80 ± 0.52% | % bound to control cells (melanoma) (melanoma cells (WM164)): 1.92 ± 0.17%
